First the molecules themselves.
B1: TPR t1 (parent)
chain: GACCAAUCUGCCCUCAGAGCUCGAGAACAUCUUCGGAUGCAGAGGAGGCAGGCUUCGGUGGCGCGAUAGCGCCAACGUCCUCAACCUCCAAUGCAUCCCACCACAUGAUGAUGCCUGAAGAGCCUUGGUUUUUUG

The series covers variants of B1. The series can be described thus: polymerase ribozyme fitness, log enrichment relative to wild type (log ratio); higher = more active; in vitro selection for triplet polymerase activity. The essentials: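 In triplicate, a single round of in vitro selection was run on each mutant library, PCR-built and transcribed, covering one subunit of a heterodimeric triplet polymerase ribozyme. Frozen incubation at −7 °C followed annealing with a biotinylated primer, partner subunit and triplets, and extended constructs were then gel-excised, streptavidin-captured and taken through RT-PCR. Fitness is the logarithm of genotype enrichment over wild-type enrichment, from inverse-variance-weighted replicate averages of Illumina-sequenced inputs and outputs. […] only genotypes with ≥10 input reads and ≥1 read per output were kept.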
For A6G C72G C88U, the “polymerase ribozyme fitness (log ratio)” value is -0.419. As to A5U G39U G47C C72U, the “polymerase ribozyme fitness (log ratio)” value is -4.21.

Regarding A6U C80A U87A, the “polymerase ribozyme fitness (log ratio)” value is -2.6. Regarding A5G U112C C124G G128A, the “polymerase ribozyme fitness (log ratio)” value is -0.522. As to A6U C34A, the “polymerase ribozyme fitness (log ratio)” value was -1.85. As for A6U C72U U96C, the “polymerase ribozyme fitness (log ratio)” value is -0.187.

As for A6G U112A, the “polymerase ribozyme fitness (log ratio)” value amounted to 1.64. For A6G G19U C70U, the “polymerase ribozyme fitness (log ratio)” value was -4.25. For the variant A6C A41G C70U G117U, the “polymerase ribozyme fitness (log ratio)” value was -7.14. A5U G113C U125G U132A: the “polymerase ribozyme fitness (log ratio)” value was -1.99.

On to A5U U32C C124G G128U, for which the “polymerase ribozyme fitness (log ratio)” value was -0.425. As for A6C A50C G127A G128U, the “polymerase ribozyme fitness (log ratio)” value was -3.5. The value for A5G U9G A111U U126A was -3.21. For A6U U9G A27U C34A G44U C64U the value was -6.87; for A6C C79A, -0.901; for A5U C72G G117A, -1.96.

Take A6U U54C: the “polymerase ribozyme fitness (log ratio)” value came out at 0.558.

For A6U G110A, the “polymerase ribozyme fitness (log ratio)” value was -0.89. Consider A5U U81A A90C U92C, for which the “polymerase ribozyme fitness (log ratio)” value was -3.49.

In the case of A6U G60C G120U, the “polymerase ribozyme fitness (log ratio)” value is 0.248. For the variant A6G C13U G19U C56A, the “polymerase ribozyme fitness (log ratio)” value is -3.79. As to A6G G69A C73A, the “polymerase ribozyme fitness (log ratio)” value is -2.9.

On to A6G U9C C13G G61C C89U A90U C94U A105U A121G, for which the “polymerase ribozyme fitness (log ratio)” value is -5.89. In the case of A6C A27G C49U C79A U81A, the “polymerase ribozyme fitness (log ratio)” value was -6.28. As for A6U C28U C123U, the “polymerase ribozyme fitness (log ratio)” value was -0.417.

A6G U87G A121C: the “polymerase ribozyme fitness (log ratio)” value came out at 1.92. For the variant A6U A27U U81A, the “polymerase ribozyme fitness (log ratio)” value is -3.93. For A6U G10C G61A C89A U125A, the “polymerase ribozyme fitness (log ratio)” value was -2.03. As for A6C C73U C85A C114U, the “polymerase ribozyme fitness (log ratio)” value was -3.29. On to U7A A18U G71A A119U G122U G135U, for which the “polymerase ribozyme fitness (log ratio)” value was -5.8.

For the variant A5G U32C C40U C99U A100U, the “polymerase ribozyme fitness (log ratio)” value was -5.33. As for A6U G117A, the “polymerase ribozyme fitness (log ratio)” value is -0.258.

Turning to A5U U33C, the “polymerase ribozyme fitness (log ratio)” value is -3.68. Consider A6U A37G G71A, for which the “polymerase ribozyme fitness (log ratio)” value was -0.537.

Regarding A6C C104A, the “polymerase ribozyme fitness (log ratio)” value was -1.61. Consider A5U A29C U78G C101U, for which the “polymerase ribozyme fitness (log ratio)” value is -3.29. Take A5U A95U: the “polymerase ribozyme fitness (log ratio)” value is -1.24.

Regarding A5U C22G A66U U112A U126G, the “polymerase ribozyme fitness (log ratio)” value was -3.51.

In the case of A6G G39A C123U U133A, the “polymerase ribozyme fitness (log ratio)” value is 0.797.

On to A6U G44U G52C G69A A121C, for which the “polymerase ribozyme fitness (log ratio)” value is -4.22. The value for A6U C12U G48A C56A G65U A95U C97G C101A U112G C114U was -7.26; that for A6U U87C U96G G120A G122C was 0.592.

Turning to A5U A18C, the “polymerase ribozyme fitness (log ratio)” value was -1.31. As for A6C U30G G61U A84C U112A, the “polymerase ribozyme fitness (log ratio)” value was -3.92. In the case of A6U C62A A105C, the “polymerase ribozyme fitness (log ratio)” value was -4.

Take A6G C40U G51U: the “polymerase ribozyme fitness (log ratio)” value was -4.1. For A6C A46U C56U the value was -1.22; for A6U U9C G60C, -0.604; for A6U C22U C64U C124U, -4.12. In the case of A5U C56A C102A U116C, the “polymerase ribozyme fitness (log ratio)” value was -5.7.

Regarding A6C A18C C49U C70U C82U, the “polymerase ribozyme fitness (log ratio)” value is -5.19. On to A6U C97G, for which the “polymerase ribozyme fitness (log ratio)” value is -3.24.

As to A6C C11G C40U C123U, the “polymerase ribozyme fitness (log ratio)” value was 0.00495.

On to A5G G120C, for which the “polymerase ribozyme fitness (log ratio)” value amounted to 0.0754. For A5U C8A the value was 0.0555; for A5U U7A C40G U55G C56U G60A, -3.04; for A6U U92A G117U, -5.86. A5U G25U C53U G69C C94U: the “polymerase ribozyme fitness (log ratio)” value is -7.17. On to A6U C11U U14G A46C, for which the “polymerase ribozyme fitness (log ratio)” value was -4.04. Take A5U C12U U78C C80U: the “polymerase ribozyme fitness (log ratio)” value was -1.23. For A6U C115G the value was -1.25; for A6C C20A A26C G60A U116C U132C, -7.63. For A6U G48A the value was -0.413; for A6U U106G G113C, -3.9; for A6G C12U G69C U112C C123A U131A, 0.491. For A5G G48U C73A C97A, the “polymerase ribozyme fitness (log ratio)” value was -5.81. As for A5U G47C C62U G113C A118U, the “polymerase ribozyme fitness (log ratio)” value was -4.96. The value for A5U G63U C102A was -3.19; that for A6C C40U G107U C124U was -4.44. Consider A6C G10A C13U G36U G51U G77C A90C G120U, for which the “polymerase ribozyme fitness (log ratio)” value is -4.97. Turning to A6U U59C A119G, the “polymerase ribozyme fitness (log ratio)” value stood at 0.571.

On to A5G G51U A83U A121C, for which the “polymerase ribozyme fitness (log ratio)” value was -3.06.

Consider A6C C72G A108G C115U, for which the “polymerase ribozyme fitness (log ratio)” value was -4.82. For A5U G52C G61C U129A, the “polymerase ribozyme fitness (log ratio)” value was -2.2. As for A5U G52U U112G, the “polymerase ribozyme fitness (log ratio)” value is -0.382. With A5U C114A G122U, the “polymerase ribozyme fitness (log ratio)” value is -1.76. As to A5U U129A, the “polymerase ribozyme fitness (log ratio)” value was -1.34. For A6U A46G C53G G117U the value was -2.98; for A6U G52A A74U, -0.0324. Turning to A6U C53G C99U, the “polymerase ribozyme fitness (log ratio)” value is -4.03.

In the case of A5G G44U G52A, the “polymerase ribozyme fitness (log ratio)” value was -2. With A6U C34G G45C C49A C123U, the “polymerase ribozyme fitness (log ratio)” value was -5.99. Take A6U G45U G52C G69C C72U G122A: the “polymerase ribozyme fitness (log ratio)” value was -3.45.
